# Like-named read-outs stand apart in the source and are kept apart here.
# What was measured:
# Assay in all cases: cell-based or functional assay
# [1] = target: T1, Cathepsin B from bovine spleen (bovine, UniProt P07688 80-332)
# [2] = target: T1, Cathepsin B from bovine spleen; remark: listed apart in the source
# [3] = target: T1, Cathepsin B from bovine spleen; remark: listed apart in the source
# [4] = target: T1, Cathepsin B from bovine spleen; remark: listed apart in the source
Binder,"Cathepsin B inhibition test, 2 mM peptide [1]","Cathepsin B inhibition test, 2 mM peptide [2]",other results
"Ac-SSKSNNRH-OH (also: MGO-modified, site not given here) [MGO-modified Ac-SSKSNNRH-OH]",102,–,–
"Ac-SKLH-OH (also: MGO-modified, site not given here) [MGO-modified Ac-SKLH-OH]",–,67.6,–
Ac-SSKSNN-OH [Ac-SSKSNN-OH],129,–,–
Ac-QNKHNN-OH [Ac-QNKHNN-OH],–,–,"Cathepsin B inhibition test, 2 mM peptide [3]: 168"
Ac-PFKISIHL-OH [Ac-PFKISIHL-OH],–,–,"Cathepsin B inhibition test, 2 mM peptide [4]: 144"
Ac-Lys-His-OH [Ac-KH-OH],–,–,"Cathepsin B inhibition test, 2 mM peptide [3]: 230"
Ac-SSKSNNRHNN-OH [Ac-SSKSNNRHNN-OH],131,–,–
Ac-SSKSNNRHNNND-OH [Ac-SSKSNNRHNNND-OH],164,–,–
Ac-HSSKLH-OH [Ac-HSSKLH-OH],–,122,–
"Ac-SSKSNN-OH (also: MGO-modified, site not given here) [MGO-modified Ac-SSKSNN-OH]",107,–,–
"Ac-KISIHL-OH (also: MGO-modified, site not given here) [MGO-modified Ac-KISIHL-OH]",–,–,"Cathepsin B inhibition test, 2 mM peptide [4]: 73.2"
"Ac-SSKS-OH (also: MGO-modified, site not given here) [MGO-modified Ac-SSKS-OH]",–,107,–
Ac-SSKSNNRH-OH [Ac-SSKSNNRH-OH],125,–,–
"Ac-PFKISIHL-OH (also: MGO-modified, site not given here) [MGO-modified Ac-PFKISIHL-OH]",–,–,"Cathepsin B inhibition test, 2 mM peptide [4]: 28.1"
Ac-HSSK-OH [Ac-HSSK-OH],–,165,–
Ac-SSKS-OH [Ac-SSKS-OH],–,119,–
"Ac-QNKHNN-OH (also: MGO-modified, site not given here) [MGO-modified Ac-QNKHNN-OH]",–,–,"Cathepsin B inhibition test, 2 mM peptide [3]: 51.3"
Ac-SKLH-OH [Ac-SKLH-OH],–,146,–
"Ac-SSKSNNRHNN-OH (also: MGO-modified, site not given here) [MGO-modified Ac-SSKSNNRHNN-OH]",104,–,–
"Ac-QNKH-OH (also: MGO-modified, site not given here) [MGO-modified Ac-QNKH-OH]",–,–,"Cathepsin B inhibition test, 2 mM peptide [3]: 97.8"
"Ac-HSSKLH-OH (also: MGO-modified, site not given here) [MGO-modified Ac-HSSKLH-OH]",–,102,–
Ac-KHNN-OH [Ac-KHNN-OH],–,–,"Cathepsin B inhibition test, 2 mM peptide [3]: 129"
"Ac-SSKSNNRHNNND-OH (also: MGO-modified, site not given here) [MGO-modified Ac-SSKSNNRHNNND-OH]",110,–,–

# From US20150337019A1 (MANUKAMED HOLDINGS LIMITED PARTNERSHIP, published 2015)
